# From article PMC2887783 (2010)
# B1: spartin 155-367 (protein)
# chain: APASLSLPSQSCPAEAPPAYTPQAAEGHYTVSYGTDSGEFSSVGEEFYRNHSQPPPLETLGLDADELILIPNGVQIFFVNPAGEVSAPSYPGYLRIVRFLDNSLDTVLNRPPGFLQVCDWLYPLVPDRSPVLKCTAGAYMFPDTMLQAAGCFVGVVLSSELPEDDRELFEDLLRQMSDLRLQANWNRAEEENEFQIPGRTRPSSDQLKEASGT
# B2: AIP4 PRR/WWI-IV 155-486 (protein)
# chain: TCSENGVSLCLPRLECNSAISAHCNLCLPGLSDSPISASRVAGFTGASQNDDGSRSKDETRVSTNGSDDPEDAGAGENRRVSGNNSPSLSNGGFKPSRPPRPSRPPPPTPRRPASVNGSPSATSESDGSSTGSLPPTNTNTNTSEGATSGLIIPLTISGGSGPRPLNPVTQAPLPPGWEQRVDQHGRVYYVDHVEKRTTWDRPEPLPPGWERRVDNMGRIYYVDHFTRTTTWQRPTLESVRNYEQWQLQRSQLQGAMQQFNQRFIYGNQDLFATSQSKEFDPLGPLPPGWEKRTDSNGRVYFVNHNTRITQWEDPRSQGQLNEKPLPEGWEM
# What was measured:
# AIP4 PRR/WWI-IV 155-486 [1] = biological target: B2; experiment: competition ELISA
# AIP4 PRR/WWI-IV 155-486 [2] = biological target: B2; experiment: ELISA
# AIP4 PRR/WWI-IV 155-486 [3] = biological target: B2; experiment: competition ELISA; remark: listed apart in the source
# AIP4 HECT domain HECT = AIP4 HECT domain HECT (Homo sapiens, UniProt Q96J02); experiment: ELISA
# Chain of AIP4 HECT domain HECT (Q96J02 566-903): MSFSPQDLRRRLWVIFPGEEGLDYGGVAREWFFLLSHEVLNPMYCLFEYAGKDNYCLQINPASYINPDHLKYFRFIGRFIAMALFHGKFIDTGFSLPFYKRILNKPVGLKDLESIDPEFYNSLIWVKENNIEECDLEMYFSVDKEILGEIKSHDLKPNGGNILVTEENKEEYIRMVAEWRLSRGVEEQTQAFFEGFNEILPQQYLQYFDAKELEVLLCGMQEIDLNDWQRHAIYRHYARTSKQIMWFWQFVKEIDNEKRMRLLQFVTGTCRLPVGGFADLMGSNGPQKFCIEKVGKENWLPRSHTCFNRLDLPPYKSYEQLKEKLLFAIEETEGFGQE
# Chain of AIP4 PRR/WWI-IV 155-486 (Q96J02 155-486): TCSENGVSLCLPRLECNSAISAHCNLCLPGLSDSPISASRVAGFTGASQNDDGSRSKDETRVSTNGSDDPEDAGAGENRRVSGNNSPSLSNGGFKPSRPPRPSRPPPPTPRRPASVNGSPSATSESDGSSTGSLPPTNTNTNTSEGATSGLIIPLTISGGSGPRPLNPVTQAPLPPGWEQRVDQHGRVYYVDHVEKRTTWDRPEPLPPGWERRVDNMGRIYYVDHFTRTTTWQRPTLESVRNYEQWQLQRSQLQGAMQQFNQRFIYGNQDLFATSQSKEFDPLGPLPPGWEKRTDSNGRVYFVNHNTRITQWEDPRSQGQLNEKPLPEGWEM
IC50 (AIP4 PRR/WWI-IV 155-486 [1]) [nM],Kd (AIP4 PRR/WWI-IV 155-486 [2]) [nM],Ki (AIP4 PRR/WWI-IV 155-486 [3]) [nM],Kd (AIP4 HECT domain HECT) [nM],Binder
560,340,210,–,B1
–,–,–,2000,B2
